The record followed here is US20090215666A1 (ONCOTHERAPY SCIENCE, published 2009).

The assay deals with T1, HA-tagged PPP3CA (calcineurin A subunit, PP2B) (UniProt Q08209 1-521, limits assumed).
T1 construct: Exogenously expressed in COS7 cells and immunoprecipitated with anti-HA antibody; not shown: HA tag
Description: co-immunoprecipitation from co-transfected COS7 cells (anti-HA IP, anti-Flag blot).

B1: Flag-tagged ΔPDIIIT-C1958 (other, not shown: small tags and cut ends)
chain: MGLKMSCLKGFQMCVSSSSSSHDEAPVLNDKHLDVPPTPTGMMLPRDLGSTVWLDETGSCPDDGEIDPEA
notes: also called ΔPDIIIT mutant
Turning to B1, the binding result is “no binding”.
